Experimental data: patent US20050143559
Read-outs that look alike come from different tables or passages of the source.

Assays:
[1] = system: tryparedoxin peroxidase isolated from Crithidia fasciculata
[2] = target: tryparedoxin peroxidase isolated from Crithidia fasciculata; remark: listed apart in the source

| Molecule | specific activity (coupled NADPH consumption assay) [1] | specific activity (coupled NADPH consumption assay) [2] [U/mg] |
| --- | --- | --- |
| authentic tryparedoxin I isolated from Crithidia fasciculata | 2.3 U/mg for the authentic enzyme |  |
| TQSLPSSFLASLEHHHHHH [recombinant tryparedoxin II containing a His tag (expressed from pET/TXN II H6 in E. coli BL21(DE3))] |  | 7.7 |
